From patent US12135332B2, “Mutant human estrogen receptor-α and methods of use thereof” (Case Western Reserve University, priority 2018, dated 2024)

Target: ERE-DNA
Assay: Fluorescence anisotropy DNA-binding assay
Conditions: 6-FAM-labeled ERE-DNA 20 nM, E2-bound hERα^CDE; read-out: DNA-binding affinity Kd
From the text: FIGS. 8(a)-(e) are graphs relating to the purification and characterization of recombinant hERα. […] FIGS. 8(b) and (c) show the purification of hERα^CDE, specifically size exclusion chromatography of hERα^CDE in the absence (b) or presence (c) of ERE-DNA. Shown are the absorbance at 260 nm and 280 nm of hERα^CDE in the presence of estradiol and a coactivator TIF2 peptide. […] Data of 2.8-μM hERα^CDE in the presence of E2 were used as a saturation level and free 20-nM DNA data as a baseline. […] The binding of the hERα to a coactivator TIF2 peptide (sequence […]) (SEQ ID NO: 2) in the presence of E2 and ERE-DNA was measured by surface plasmon resonance (SPR). […]
To further assess the impact of this substitution on the receptor's ability to bind ERE-DNA, a biochemical DNA-binding assay was performed by detecting fluorescence anisotropy of 6-carboxyfluorescein-labeled ERE-DNA in the presence of increasing concentrations of the E2-bound hERα^CDE. […]
The fluorescence-conjugated double-strand ERE-DNA was prepared by annealing 6-FAM (6-carboxyfluorescein) 5′-labeled strands (5′-[…]-3′ (SEQ ID NO: 44) and 5′-[…]-3′ (SEQ ID NO: 45); IDT, Inc) in a buffer containing 10 mM CHES (pH 9.5), 50 mM KCl, 50 mM NaCl, 4 mM MgCl2, 50 mM arginine, 50 mM glutamic acid, 5 mM TCEP, 5% glycerol with 10 μM ZnCl2, and 10 μM E2. […]

B1: WT: recombinant wild-type human ERα segment with DBD and LBD, residues E181-P552 (protein)
chain: ETRYCAVCNDYASGYHYGVWSCEGCKAFFKRSIQGHNDYMCPATNQCTIDKNRRKSCQACRLRKCYEVGMMKGGIRKDRRGGRMLKHKRQRDDGEGRGEVGSAGDMRAANLWPSPLMIKRSKKNSLALSLTADQMVSALLDAEPPILYSEYDPTRPFSEASMMGLLTNLADRELVHMINWAKRVPGFVDLTLHDQVHLLECAWLEILMIGLVWRSMEHPGKLLFAPNLLLDRNQGKCVEGMVEIFDMLLATSSRFRMMNLQGEEFVCLKSIILLNSGVYTFLSSTLKSLEEKDHIHRVLDKITDTLIHLMAKAGLTLQQQHQRLAQLLLILSHIRHMSNKGMEHLYSMKCKNVVPLYDLLLEMLDAHRLHAP
Question: With B1 as the molecule, how does the Kd read?
Answer: 9.2 nM
